Laboratory results taken from paper PMC10014292.

What was measured:
Settings in all cases: glycan lost; control: wild type
[1] = whole-cell patch clamp, HEK-293T
[2] = NFAT promoter activity with TRPC6 antagonist
[3] = Nppa, Rcan1 qPCR ± angiotensin II, rat cardiomyocytes
[4] = cycloheximide chase, rate of YFP fluorescence decline

B1: TRPC6: T221A (protein)
parent chain: MSQSPAFGPRRGSSPRGAAGAAARRNESQDYLLMDSELGEDGCPQAPLPCYGYYPCFRGSDNRLAHRRQTVLREKGRRLANRGPAYMFSDRSTSLSIEEERFLDAAEYGNIPVVRKMLEECHSLNVNCVDYMGQNALQLAVANEHLEITELLLKKENLSRVGDALLLAISKGYVRIVEAILSHPAFAEGKRLATSPSQSELQQDDFYAYDEDGTRFSHDVTPIILAAHCQEYEIVHTLLRKGARIERPHDYFCKCNDCNQKQKHDSFSHSRSRINAYKGLASPAYLSLSSEDPVMTALELSNELAVLANIEKEFKNDYKKLSMQCKDFVVGLLDLCRNTEEVEAILNGDVETLQSGDHGRPNLSRLKLAIKYEVKKFVAHPNCQQQLLSIWYENLSGLRQQTMAVKFLVVLAVAIGLPFLALIYWFAPCSKMGKIMRGPFMKFVAHAASFTIFLGLLVMNAADRFEGTKLLPNETSTDNAKQLFRMKTSCFSWMEMLIISWVIGMIWAECKEIWTQGPKEYLFELWNMLDFGMLAIFAASFIARFMAFWHASKAQSIIDANDTLKDLTKVTLGDNVKYYNLARIKWDPSDPQIISEGLYAIAVVLSFSRIAYILPANESFGPLQISLGRTVKDIFKFMVIFIMVFVAFMIGMFNLYSYYIGAKQNEAFTTVEESFKTLFWAIFGLSEVKSVVINYNHKFIENIGYVLYGVYNVTMVIVLLNMLIAMINSSFQEIEDDADVEWKFARAKLWFSYFEEGRTLPVPFNLVPSPKSLFYLLLKLKKWISELFQGHKKGFQEDAEMNKINEEKKLGILGSHEDLSKLSLDKKQVGHNKQPSIRSSEDFHLNSFNNPPRQYQKIMKRLIKRYVLQAQIDKESDEVNEGELKEIKQDISSLRYELLEEKSQNTEDLAELIRELGEKLSMEPNQEETNR
Q: With B1 as the protein, how does the “other: channel current, other: percent increase in current” value [1] read?
A: increases

Q: And the “other: antagonist sensitivity” value [2]?
A: no change

Q: And the “other: response to angiotensin II” value [3]?
A: no change

Q: What about the degradation_or_half_life [4] of the same protein?
A: decreases
